Experimental findings from patent US20220411498A1 (JACOBIO PHARMACEUTICALS, published 2022) are described below.

For test [1], the target named is T1, huCD39 on the cell surface (293T/17-huCD39 cells) (human, UniProt P49961 1-510).
T1 construct: whole, on cells; also called natural CD39 protein on the cell surface; huCD39 antigen on the cell surface
T1 sequence (looked up): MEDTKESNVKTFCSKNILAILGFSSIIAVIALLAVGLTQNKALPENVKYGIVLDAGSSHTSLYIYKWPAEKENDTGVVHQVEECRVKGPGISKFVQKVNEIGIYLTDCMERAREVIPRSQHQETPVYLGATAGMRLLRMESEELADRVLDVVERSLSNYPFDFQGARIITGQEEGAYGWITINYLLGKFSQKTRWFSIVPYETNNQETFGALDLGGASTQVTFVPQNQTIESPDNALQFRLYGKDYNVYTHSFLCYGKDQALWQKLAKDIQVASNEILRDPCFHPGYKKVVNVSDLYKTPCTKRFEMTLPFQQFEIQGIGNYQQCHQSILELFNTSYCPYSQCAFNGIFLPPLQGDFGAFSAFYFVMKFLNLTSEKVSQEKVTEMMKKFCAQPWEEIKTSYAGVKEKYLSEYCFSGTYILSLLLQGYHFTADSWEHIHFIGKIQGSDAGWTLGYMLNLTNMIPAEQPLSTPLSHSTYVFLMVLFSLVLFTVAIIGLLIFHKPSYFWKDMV
In words: flow cytometry on 293T/17-huCD39 cells. The protocol:
Flow cytometry assay: recombinant host cell line 293T/17-huCD39 cells expressing huCD39 were used to evaluate the binding ability of the humanized antibody to the natural CD39 protein on the cell surface. The recombinant cells were resuspended in PBS buffer, 2×10⁶ cells were added to a 96-well U-plate, and a certain gradient dilution range of the humanized antibody was incubated for 1h at 4° C. in a refrigerator or on ice. The mixture was centrifuged at 1500 rpm for 3 min at 4° C., and washed three times with PBS buffer. Then, incubated for 30 min at 4° C. in the refrigerator or on ice with diluted Alexa Fluor 488-labeled goat anti-human polyclonal antibody (pAb): Goat anti-Human IgG (H+L) Cross-Adsorbed Secondary Antibody, Alexa Fluor 488 (thermo), and finally the cells were washed three times with PBS as described above and analyzed in MACSQuant flow cytometry. Data plots were generated and affinity data were counted using GraphPad Prism software (FIG. 5). The results are shown in Table 5, and the EC₅₀ values of 293T/17-huCD39 humanized antibody were all at the level of 10⁻⁹M.

Test [2] has as its target T1, huCD39 on the cell surface …. The test is described as follows: cell-based or functional assay.
The target is the same in test [3]. The test is described as follows: cell-based or functional assay. The source holds these as a separate data set.
Test [4] has as its target T2, huCD39 recombinant protein (human, UniProt P49961 38-478).
T2 construct: the entry is the extracellular domain and ends in a histidine tag; also called soluble huCD39 protein; human CD39 extracellular domain recombinant protein
T2 sequence: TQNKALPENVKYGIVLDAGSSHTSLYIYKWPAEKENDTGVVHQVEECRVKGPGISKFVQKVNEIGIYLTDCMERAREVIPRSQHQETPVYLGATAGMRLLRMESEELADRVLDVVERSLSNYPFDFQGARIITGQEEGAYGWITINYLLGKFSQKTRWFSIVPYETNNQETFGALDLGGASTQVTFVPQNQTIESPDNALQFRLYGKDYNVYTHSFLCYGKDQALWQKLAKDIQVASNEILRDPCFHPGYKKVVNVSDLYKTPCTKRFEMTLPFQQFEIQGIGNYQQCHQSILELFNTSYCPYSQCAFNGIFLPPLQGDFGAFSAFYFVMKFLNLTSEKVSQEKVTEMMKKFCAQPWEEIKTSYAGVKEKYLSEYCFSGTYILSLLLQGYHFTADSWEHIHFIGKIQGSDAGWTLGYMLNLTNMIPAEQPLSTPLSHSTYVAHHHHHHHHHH
In words: indirect ELISA, huCD39 recombinant protein coated at 1 ug/mL. How it is done: The next day, washed 5 times with PBS buffer and blocked with 200 μL/well of 2% skim milk powder for 1 h. A certain dose range of CD39 humanized antibody was added, and incubated for 1 h at room temperature. Then, washed 5 times with PBST washing buffer (PBS, 0.05% Tween 20), 100 μL HRP-labeled secondary antibody was added to each well, and incubated for 30 min at room temperature. The plates were washed 5 times again, and TMB (Life Technologies) was added for color development for 5 to 10 min. Finally, 1N HCl was added to terminate the reaction, and the OD value was measured at 450 nm. GraphPad Prism software was used to generate data plots and count the affinity data (FIG. 4). The EC₅₀ values of the binding activity of the three humanized antibodies were all at the level of 10⁻¹⁰ M.

B1: h201H3.1+h201L1.1dmut G2C (antibody, human IgG2, kappa, V domains shown)
VH: QVQLVESGGGVVQPGRSLRLSCAASGFTFSDYGMHWVRQAPGKGLEWVAYISSGSSIMYYADTVKGRFTISRDNSKNTLYLQMNSLRAEDTAVYYCARDLYYDHVLDYWGQGTTVTVSS
VL: DIQMTQSPSSLSASVGDRVTITCRASQEIRGYLIWLQQKPGKAIKRLIYAASTLESGVPSRFSGSRSGSDYTLTISSLQPEDFATYYCLQYTSYPRTFGQGTKVEIKR
notes: Humanized antibody, expressed in 293F cells
Take B1: in test [1], the Bottom was -1.33, it took 3.31 nM to reach a half-maximal effect (EC50) and the Top is 280. In test [2], the “Blocking of ATPase activity on cell surface (293T/17-huCD39, CellTiter Glo): Bottom” value (from here on “Blocking of ATPase activity … Bottom”) turned out to be 39600; the “Blocking of ATPase activity on cell surface (293T/17-huCD39, CellTiter Glo): EC50” value (shortened to “Blocking of ATPase activity … EC50”) amounted to 0.038 nM; the “Blocking of ATPase activity on cell surface (293T/17-huCD39, CellTiter Glo): Top” value (from here on “Blocking of ATPase activity … Top”) came to 245000. Moreover, in test [3], the “EC50 of reversal of ATP-mediated proliferation inhibition of human CD4+ T cells (CFSE, flow cytometry)” value was 5.08 nM and the “EC50 of reversal of ATP-mediated proliferation inhibition of human CD8+ T cells (CFSE, flow cytometry)” value is 7.08 nM. Further, in test [4], the Bottom worked out at 0.109 OD450; the EC50 (in general, the midpoint of the concentration-response curve) was determined as 0.433 nM; the Top is 1.03 OD450.

B2: M201 HuH1L1(D-E) G2C (antibody, human IgG2, kappa, V domains shown)
VH: EVQLVESGGGLVQPGGSLRLSCAASGFTFSDYGMHWVRQAPGKGLEWVSYISSGSSIMYYADTVKGRFTISRDNAKNSLYLQMNSLRAEDTAVYYCARDLYYDHVLDYWGQGTLLTVSS
VL: DIQMTQSPSSLSASVGDRVTITCRASQEIRGYLIWLQQKPGGAIKRLIYAASTLESGVPSRFSGSRSGTDFTLTISSLQPEDFATYYCLQYTSYPRTFGGGTKVEIKR
notes: as for B1
For the molecule B2, in test [1], the Bottom is -2.15, the EC50 is 2.94 nM and the Top came out at 329. Besides, in test [2], the “Blocking of ATPase activity … Bottom” value was determined as 31300; the “Blocking of ATPase activity … EC50” value stood at 0.026 nM; the “Blocking of ATPase activity … Top” value came to 152000. Further, in test [3], the “EC50 of reversal of ATP-mediated proliferation inhibition of human CD4+ T cells (CFSE, flow cytometry)” value is 25.5 nM and the “EC50 of reversal of ATP-mediated proliferation inhibition of human CD8+ T cells (CFSE, flow cytometry)” value was 60.4 nM. Also, in test [4], the Bottom stood at 0.068 OD450, the EC50 was 0.514 nM and the Top stood at 1.18 OD450.

B3: h201H3.1+h219L1.1 G2C (antibody, human IgG2, kappa, V domains shown)
VH: QVQLVESGGGVVQPGRSLRLSCAASGFTFSDYGMHWVRQAPGKGLEWVAYISSGSSIMYYADTVKGRFTISRDNSKNTLYLQMNSLRAEDTAVYYCARDLYYDHVLDYWGQGTTVTVSS
VL: DIQMTQSPSSLSASVGDRVTITCRASQEVSGYLNWLQQKPGKAIKRLIYAASTLESGVPSRFSGSRSGSDYTLTISSLQPEDFATYYCLQYASYPRTFGQGTKVEIKR
notes: as for B1
For B3, in test [1], the Bottom stood at 8.18; the midpoint of the response, the EC50, lay at 3.1 nM; the Top is 266. Further, in test [2], the “Blocking of ATPase activity … Bottom” value amounted to 38800; the “Blocking of ATPase activity … EC50” value amounted to 0.077 nM; the “Blocking of ATPase activity … Top” value stood at 250000. Moreover, in test [3], the “EC50 of reversal of ATP-mediated proliferation inhibition of human CD4+ T cells (CFSE, flow cytometry)” value is 0.646 nM and the “EC50 of reversal of ATP-mediated proliferation inhibition of human CD8+ T cells (CFSE, flow cytometry)” value is 1.35 nM. For the same molecule, in test [4], the Bottom stood at 0.085 OD450, the EC50 was 0.709 nM and the Top stood at 0.991 OD450.
